Literature values as cited in paper PMC4411291.

Biological target: Calmodulin (UniProt P0DP23)

STIM2 C-terminal site (from UniProt Q9P246)
Kd: 1000 nM
